Measured values taken from the supplement of paper PMC9112550, “Optimization of the antimicrobial peptide Bac7 by deep mutational scanning” (BMC Biology, 2022).

What follows are sequences tested on Escherichia coli TOP10 (assay: shrunken log2 fold change of peptide-encoding DNA abundance (4.5 h post-induction vs induction); higher = less antimicrobial activity (less host growth inhibition)). Conditions: time post-induction: 4.5 h; library: site-saturation at positions 5, 18, 19, 20.
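Further: peptides expressed intracellularly from a pBAD plasmid library in pooled LB shake-flask culture, induced with 0.3% L-arabinose, DNA abundance read by NGS, three biological replicates, DESeq2 with apeglm shrinkage.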

Sequence	shrunken log2 fold change
RRIRVRPPRLPRPRPRPHNHPRP	-0.468
RRIRKRPPRLPRPRPRPEQAPRP	0.776
RRIRNRPPRLPRPRPRPVVDPRP	-0.274
RRIRFRPPRLPRPRPRPLLNPRP	-0.549
RRIRERPPRLPRPRPRPKTQPRP	-0.102
RRIRERPPRLPRPRPRPRIDPRP	-0.0634
RRIRTRPPRLPRPRPRPWNAPRP	-0.00214
RRIRSRPPRLPRPRPRPYYQPRP	-0.608
RRIRHRPPRLPRPRPRPMVTPRP	-1.08
RRIRRRPPRLPRPRPRPKWGPRP	1.2
RRIRARPPRLPRPRPRPMICPRP	0.0985
RRIRLRPPRLPRPRPRPVAEPRP	0.396
RRIRFRPPRLPRPRPRPCEHPRP	-0.00783
RRIRERPPRLPRPRPRPPKVPRP	-0.0931
RRIRNRPPRLPRPRPRPIKYPRP	-0.068
RRIRRRPPRLPRPRPRPLLHPRP	0.295
RRIRPRPPRLPRPRPRPKTLPRP	-0.0149
RRIRPRPPRLPRPRPRPRETPRP	0.574
RRIRHRPPRLPRPRPRPPWNPRP	-0.0664
RRIRHRPPRLPRPRPRPLIFPRP	-0.38
RRIRMRPPRLPRPRPRPRIWPRP	0.726
RRIRMRPPRLPRPRPRPKIGPRP	-0.0597
RRIRERPPRLPRPRPRPVFIPRP	-0.281
RRIRKRPPRLPRPRPRPHHCPRP	0.0484
RRIRIRPPRLPRPRPRPLPGPRP	-0.0346

Sequence	shrunken log2 fold change
RRIRHRPPRLPRPRPRPQLWPRP	0.0534
RRIRSRPPRLPRPRPRPAIDPRP	-0.0382
RRIRKRPPRLPRPRPRPYGEPRP	0.0585
RRIRVRPPRLPRPRPRPEKWPRP	0.0257
RRIRPRPPRLPRPRPRPRQTPRP	0.338
RRIRCRPPRLPRPRPRPCISPRP	-0.582
RRIRFRPPRLPRPRPRPYKYPRP	-0.907
RRIRKRPPRLPRPRPRPIVFPRP	-0.0542
RRIRWRPPRLPRPRPRPHQDPRP	0.134
RRIRKRPPRLPRPRPRPTKEPRP	1.6
RRIRPRPPRLPRPRPRPLWGPRP	0.232
RRIRGRPPRLPRPRPRPNCMPRP	0.196
RRIRERPPRLPRPRPRPMHCPRP	-0.0195
RRIRVRPPRLPRPRPRPSFRPRP	-0.42
RRIRQRPPRLPRPRPRPRTYPRP	-0.049
RRIRCRPPRLPRPRPRPTNAPRP	0.307
RRIRWRPPRLPRPRPRPQRFPRP	0.206
RRIRQRPPRLPRPRPRPAKLPRP	0.0771
RRIRNRPPRLPRPRPRPDGNPRP	0.102
RRIRYRPPRLPRPRPRPAVMPRP	-0.231
RRIRIRPPRLPRPRPRPQKTPRP	-0.168
RRIRMRPPRLPRPRPRPGAHPRP	0.473
RRIRTRPPRLPRPRPRPLSFPRP	-0.124
RRIRSRPPRLPRPRPRPYIHPRP	-0.737
RRIRSRPPRLPRPRPRPVRMPRP	0.0776

Sequence	shrunken log2 fold change
RRIRGRPPRLPRPRPRPKRAPRP	1.11
RRIRARPPRLPRPRPRPDSCPRP	0.156
RRIRMRPPRLPRPRPRPLMTPRP	1.3
RRIRQRPPRLPRPRPRPKCRPRP	-0.0264
RRIRKRPPRLPRPRPRPTKGPRP	0.0795
RRIRSRPPRLPRPRPRPFCVPRP	-0.128
RRIRGRPPRLPRPRPRPWASPRP	-0.00862
RRIRMRPPRLPRPRPRPATEPRP	0.996
RRIRHRPPRLPRPRPRPVVQPRP	0.13
RRIRMRPPRLPRPRPRPPCCPRP	0.928
RRIRNRPPRLPRPRPRPDCKPRP	-0.0698
RRIRYRPPRLPRPRPRPMFAPRP	-0.117
RRIRDRPPRLPRPRPRPSCRPRP	-0.0363
RRIRKRPPRLPRPRPRPCQKPRP	-0.0405
RRIRCRPPRLPRPRPRPWCDPRP	-0.211
RRIRSRPPRLPRPRPRPPVYPRP	0.0599
RRIRSRPPRLPRPRPRPGDCPRP	0.0299
RRIRYRPPRLPRPRPRPGSQPRP	0.0113
RRIRRRPPRLPRPRPRPWSQPRP	-0.132
RRIRGRPPRLPRPRPRPDKVPRP	0.32
RRIRERPPRLPRPRPRPNWFPRP	-0.0607
RRIRKRPPRLPRPRPRPQQQPRP	-0.0131
RRIRWRPPRLPRPRPRPYPRPRP	-0.632
RRIRQRPPRLPRPRPRPGTYPRP	0.00894
RRIRVRPPRLPRPRPRPIPHPRP	-0.307

Sequence	shrunken log2 fold change
RRIRTRPPRLPRPRPRPVGYPRP	0.35
RRIRSRPPRLPRPRPRPKHSPRP	-0.572
RRIRYRPPRLPRPRPRPVRQPRP	0.132
RRIRNRPPRLPRPRPRPAVGPRP	0.543
RRIRSRPPRLPRPRPRPVLLPRP	-0.315
RRIRQRPPRLPRPRPRPYFWPRP	-0.101
RRIRCRPPRLPRPRPRPLCGPRP	-0.0842
RRIRGRPPRLPRPRPRPPSFPRP	0.653
RRIRVRPPRLPRPRPRPPHIPRP	0.0567
RRIRQRPPRLPRPRPRPAGTPRP	0.134
RRIRIRPPRLPRPRPRPVRRPRP	0.377
RRIRWRPPRLPRPRPRPHMQPRP	-0.0363
RRIRGRPPRLPRPRPRPHPTPRP	0.973
RRIRHRPPRLPRPRPRPHWTPRP	-0.00191
RRIRERPPRLPRPRPRPYQIPRP	-0.388
RRIRKRPPRLPRPRPRPYTCPRP	-0.175
RRIRQRPPRLPRPRPRPCTPPRP	-0.141
RRIRERPPRLPRPRPRPNGWPRP	-0.00266
RRIRARPPRLPRPRPRPYNPPRP	-0.388
RRIRQRPPRLPRPRPRPVSPPRP	-0.0264
RRIRARPPRLPRPRPRPVVTPRP	0.254
RRIRFRPPRLPRPRPRPDYHPRP	-0.935
RRIRQRPPRLPRPRPRPKNDPRP	-0.379
RRIRKRPPRLPRPRPRPAMIPRP	0.909
RRIRARPPRLPRPRPRPHTKPRP	0.0902

Sequence	shrunken log2 fold change
RRIRERPPRLPRPRPRPEQFPRP	-0.0286
RRIRDRPPRLPRPRPRPVKDPRP	-0.173
RRIRTRPPRLPRPRPRPPCVPRP	-0.121
RRIRMRPPRLPRPRPRPLFFPRP	0.135
RRIRTRPPRLPRPRPRPENHPRP	-0.119
RRIRQRPPRLPRPRPRPVYPPRP	-0.0407
RRIRWRPPRLPRPRPRPLCLPRP	0.949
RRIRYRPPRLPRPRPRPVRCPRP	0.0877
RRIRCRPPRLPRPRPRPHEDPRP	-0.157
RRIRSRPPRLPRPRPRPWPIPRP	0.0295
RRIRTRPPRLPRPRPRPQNQPRP	-0.584
RRIRMRPPRLPRPRPRPVRTPRP	0.673
RRIRPRPPRLPRPRPRPDTFPRP	-0.0596
RRIRKRPPRLPRPRPRPVGYPRP	0.00938
RRIRGRPPRLPRPRPRPMTEPRP	0.0819
RRIRARPPRLPRPRPRPMWYPRP	-0.0479
RRIRMRPPRLPRPRPRPPQRPRP	1.09
RRIRSRPPRLPRPRPRPQFGPRP	0.0239
RRIRTRPPRLPRPRPRPRLLPRP	0.0778
RRIRERPPRLPRPRPRPYRWPRP	-0.0887
RRIRQRPPRLPRPRPRPCNWPRP	0.0183
RRIRHRPPRLPRPRPRPYWDPRP	-0.849
RRIRLRPPRLPRPRPRPVADPRP	0.0131
RRIRARPPRLPRPRPRPMFGPRP	0.215
RRIRQRPPRLPRPRPRPLTYPRP	-0.13

Sequence	shrunken log2 fold change
RRIRRRPPRLPRPRPRPPCQPRP	0.767
RRIRLRPPRLPRPRPRPICCPRP	-0.205
RRIRRRPPRLPRPRPRPRVVPRP	0.215
RRIRHRPPRLPRPRPRPVYAPRP	-0.375
RRIRWRPPRLPRPRPRPCMSPRP	-0.00264
RRIRWRPPRLPRPRPRPTHAPRP	0.787
RRIRWRPPRLPRPRPRPFLQPRP	-0.499
RRIRPRPPRLPRPRPRPFDLPRP	-0.736
RRIRSRPPRLPRPRPRPDDCPRP	-0.0201
RRIRMRPPRLPRPRPRPPWAPRP	0.911
RRIRYRPPRLPRPRPRPNTMPRP	-1.1
RRIRRRPPRLPRPRPRPSYLPRP	-0.36
RRIRSRPPRLPRPRPRPWGEPRP	0.00882
RRIRPRPPRLPRPRPRPWWHPRP	0.0413
RRIRMRPPRLPRPRPRPDCMPRP	2.24
RRIRCRPPRLPRPRPRPYRSPRP	0.00395
RRIRSRPPRLPRPRPRPQCSPRP	-0.0935
RRIRQRPPRLPRPRPRPDMAPRP	0.0464
RRIRRRPPRLPRPRPRPKQGPRP	-0.079
RRIRERPPRLPRPRPRPDCDPRP	-0.121
RRIRSRPPRLPRPRPRPEKFPRP	-0.146
RRIRSRPPRLPRPRPRPLMDPRP	-0.00235
RRIRWRPPRLPRPRPRPIQEPRP	-0.0126
RRIRYRPPRLPRPRPRPISGPRP	0.0356
RRIRDRPPRLPRPRPRPMANPRP	-0.0338
